Laboratory results as given in article PMC4288179, “Synergic interplay of the La motif, RRM1 and the interdomain linker of LARP6 in the recognition of collagen mRNA expands the RNA binding repertoire of the La module”.

T1: HsLARP6 La module (70-300) (Homo sapiens, UniProt Q9BRS8 70-300)
T1 sequence: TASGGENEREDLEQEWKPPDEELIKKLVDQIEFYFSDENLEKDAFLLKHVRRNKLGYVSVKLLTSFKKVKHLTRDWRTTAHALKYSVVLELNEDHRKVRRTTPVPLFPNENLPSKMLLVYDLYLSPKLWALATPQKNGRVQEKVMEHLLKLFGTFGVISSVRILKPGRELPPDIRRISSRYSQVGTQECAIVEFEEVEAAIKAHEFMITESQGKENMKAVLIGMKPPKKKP

B1: UUUUOH RNA (ssRNA)
RNA: UUUU
B2: 32 nt RNA (structured_RNA)
RNA: CAAAGAGUCUACAUGGGUCAUGUUCAGCUUUG

Target: T1, HsLARP6 La module (70-300)
Test: ITC; ITC: 20 mM Tris pH 7.25, 100 mM KCl, 5 mM MgCl2, 1 mM DTT, 298 K; protein titrated into RNA
Settings: protein: recombinant, tags: N-terminal His6, TEV-cleaved for initial ITC

Binder	Kd (single strand)	Kd (stem-loop with internal bulge)
B1	6 µM	–
B2	–	0.125 µM
